Test results published in FireProtDB (doi:10.1021/bi0525223).

Conditions: Lithobates pipiens, pH 5.5, sodium acetate 100 mM, reversible: Yes, whole UniProt chain shown

B1: Protein P-30 wild type, P22069 (protein)
chain: QDWLTFQKKHITNTRDVDCDNIMSTNLFHCKDKNTFIYSRPEPVKAICKGIIASKNVLTTSEFYLSDCNVTSRPCKYKLKKSTNKFCVTCENQAPVHFVGVGSC
denaturant midpoint (higher = more stable) (20 °C, GdnHCl, Fluorescence): 4.4 M | Tm (Thermal, DSC): 88.5 °C
